In patent publication US20240218070A1 (MERUS N V, published 2024):

T1: cynomolgus FAP (cyFAP) expressed on 293FF cells (cynomolgus, UniProt Q12884 1-760 (human entry))
T1 sequence: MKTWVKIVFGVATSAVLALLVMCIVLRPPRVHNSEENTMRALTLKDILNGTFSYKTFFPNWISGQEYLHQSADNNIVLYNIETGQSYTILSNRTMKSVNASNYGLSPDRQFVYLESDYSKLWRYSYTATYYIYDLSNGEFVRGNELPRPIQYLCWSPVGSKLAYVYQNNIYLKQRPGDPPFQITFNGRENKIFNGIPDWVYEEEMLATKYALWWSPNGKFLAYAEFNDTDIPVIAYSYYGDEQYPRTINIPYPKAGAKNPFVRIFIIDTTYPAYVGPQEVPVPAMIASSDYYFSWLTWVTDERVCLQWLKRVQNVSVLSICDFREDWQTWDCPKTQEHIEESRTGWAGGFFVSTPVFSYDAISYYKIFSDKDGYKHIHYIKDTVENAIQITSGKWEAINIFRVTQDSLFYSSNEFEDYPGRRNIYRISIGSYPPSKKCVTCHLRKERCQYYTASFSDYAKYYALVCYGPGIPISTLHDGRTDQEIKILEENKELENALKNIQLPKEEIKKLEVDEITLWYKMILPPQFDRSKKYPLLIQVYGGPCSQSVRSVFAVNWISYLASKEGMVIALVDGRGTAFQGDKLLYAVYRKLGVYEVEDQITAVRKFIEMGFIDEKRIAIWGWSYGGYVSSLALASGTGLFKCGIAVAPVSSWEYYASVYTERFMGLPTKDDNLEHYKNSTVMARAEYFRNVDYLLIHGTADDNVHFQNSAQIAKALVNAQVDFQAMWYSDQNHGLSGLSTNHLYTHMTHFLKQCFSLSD

B1: anti-human FAP bivalent monospecific IgG comprising heavy chain variable region SEQ ID NO: 19 (antibody, V domains shown)
VH: EVQLVESGGGLVKPGGSLRLSCAASGFPFNYAWMSWVRQAPGKGLEWVGRIKPKTSGGATDYAAPVKDRFTISRDDSRNTLYLQMNSLKTEDTAVYYCSAREDIWNFFFDLWGQGTLVTVSS
VL: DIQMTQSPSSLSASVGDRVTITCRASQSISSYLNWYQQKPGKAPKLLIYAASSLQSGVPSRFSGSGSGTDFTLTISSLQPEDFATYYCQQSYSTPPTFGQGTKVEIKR
notes: IgG1 format, common light chain VK1-39/JK1
B2: anti-human FAP bivalent monospecific IgG comprising heavy chain variable region SEQ ID NO: 15 (antibody, V domains shown)
VH: QLQLQESGPGLVKPSETLSLTCTVSGGSISSSSYFWAWIRQPPGKGLEFIGNIYYSGSTYYNPSLKSRVTISVDTSKNQFSLKLSSVTAADTAVYYCARPSYYGSGNYYFAFWGQGTLVTVSS
VL: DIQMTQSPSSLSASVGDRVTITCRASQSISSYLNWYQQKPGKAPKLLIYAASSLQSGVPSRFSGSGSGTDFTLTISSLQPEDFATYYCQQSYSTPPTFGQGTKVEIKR
notes: as for B1
B3: anti-human FAP bivalent monospecific IgG comprising heavy chain variable region SEQ ID NO: 11 (antibody, V domains shown)
VH: EVQLVESGGGLVQPGGSLRLSCAASGFTFSSYAMIWVRQAPGKGLEWVSAISGSGGYTFNADSVKGRFTMSRDNSKNTLYLQMNSLRAEDTAVYYCAKRDGGYEGGAFDIWGQGTLVTVSS
VL: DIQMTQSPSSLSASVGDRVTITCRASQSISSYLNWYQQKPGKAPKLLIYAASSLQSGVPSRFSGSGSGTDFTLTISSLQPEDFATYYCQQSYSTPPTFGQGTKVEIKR
notes: as for B1
B4: anti-human FAP bivalent monospecific IgG comprising heavy chain variable region SEQ ID NO: 69 (antibody, V domains shown)
VH: EVQLVETGGGLIQPGGSLRLSCAASGFTVSSNYMSWVRQAPGKGLEWVSVIYSGGSTYYADSVKGRFTISRDNSKNTLYLQMNSLRAEDTAVYYCARGPTDAYPYLDYLWGQGTLVTVSS
VL: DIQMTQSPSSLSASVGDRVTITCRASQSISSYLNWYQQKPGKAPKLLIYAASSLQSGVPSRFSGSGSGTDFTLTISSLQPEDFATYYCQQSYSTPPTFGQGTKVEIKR
notes: IgG1 format, common light chain VK1-39/JK1; also called human/mouse cross-reactive FAP IgG

These binders were tested against T1, cynomolgus FAP (cyFAP) expressed on … (assay: FACS, 293FF cells stably expressing cyFAP, IgG at 2.5 ug/ml).
Experimental: The binding of all test and control antibodies to the cells was tested at a single concentration of 2.5 ug/ml. Goat-anti-human IgG F(ab)2-PE (Invitrogen, H10104) was used as secondary antibody (1:100 in FACS buffer). Ab0625 was used at 10 ug/ml and its binding was detected using Ab0250 (Becton Dickinson, 550767) (1:100 in FACS buffer). The FACS buffer containing PBS (Gibco, cat. #10010-015), 0.5% BSA (Thermo Scientific, cat. #37525), and 2 mM EDTA (Invitrogen, cat. #15575-020) was kept ice cold throughout the assay.
The target cells were harvested, counted, and centrifuged for 5 min at 300 g at 4 °C. Cells were then resuspended in FACS buffer at a concentration of 1×10⁶ cells/ml and transferred (200,000 cells/well) to a U-bottom 96-well FACS plate (BD, cat. #353910). Cells were then centrifuged for 3 min at 300 g at 4° C. and supernatant was discarded. 50 μl of primary antibody solutions were added to the cells, mixed, and incubated for 30 min at 2-8° C. in the dark. Cells were washed by adding 150 μl FACS buffer and centrifuged for 3 min at 300 g at 4° C. Supernatant was discarded, and cells were washed again by adding 200 μl FACS buffer to the plate. Cells were then centrifuged for 3 min at 300 g at 4° C. and afterwards the supernatant was discarded. 50 μl of secondary antibody solutions were added to the cells, mixed, and incubated for 30 min at 2-8° C. in the dark. Cells were then washed by adding 150 μl FACS buffer to the plate and centrifuged for 3 min at 300 g at 4° ° C. Supernatant was discarded and cells were washed again by adding 200 μl FACS buffer to the plate and centrifuged for 3 min at 300 g at 4° C. Supernatant was discarded and cells were fixated by adding 100 μl/well ice-cold Fixation buffer (2% formaldehyde solution in PBS, Sigma-Aldrich, cat. #47608-250ML-F). Cells were incubated for 15 min on ice in the dark. Afterwards, 100 μl ice-cold PBS was added to the cells and cells were centrifuged for 3 at 300 g at 4° C. Supernatant was discarded and cells were resuspended in 120 μl FACS buffer.

| Binder | binding result |
| --- | --- |
| B1 | binds |
| B2 | binds |
| B3 | binds |
| B4 | binds |
